Experimental data reported in PMC6522346 (Science (New York, N.Y.), 2018).

Key:
Test in all cases: native MS
[1] = target: complex III (Bos taurus (endogenous in bovine mitochondria)) (UniProt P00157)
complex IV = target: complex IV
[2] = target: Anchor Cell Fusion Failure protein 1
native MS = target: the molecule itself

complex III (from UniProt P00157;P00129)
stoichiometry N [1]: 2

complex IV
stoichiometry N (complex IV): 2

Anchor Cell Fusion Failure protein 1 (natural protein)
stoichiometry N [2]: 2

B1: adenine nucleotide translocase 1 (natural protein)
chain: MSDQALSFLKDFLAGGVAAAISKTAVAPIERVKLLLQVQHASKQISAEKQYKGIIDCVVRIPKEQGFLSFWRGNLANVIRYFPTQALNFAFKDKYKQIFLGGVDRHKQFWRYFAGNLASGGAAGATSLCFVYPLDFARTRLAADVGKGAAQREFTGLGNCITKIFKSDGLRGLYQGFNVSVQGIIIYRAAYFGVYDTAKGMLPDPKNVHIIVSWMIAQTVTAVAGLVSYPFDTVRRRMMMQSGRKGADIMYTGTVDCWRKIAKDEGPKAFFKGAWSNVLRGMGGAFVLVLYDEIKKFV
stoichiometry N (native MS): 2

B2: CyoB (natural protein)
chain: MFGKLSLDAVPFHEPIVMVTIAGIILGGLALVGLITYFGKWTYLWKEWLTSVDHKRLGIMYIIVAIVMLLRGFADAIMMRSQQALASAGEAGFLPPHHYDQIFTAHGVIMIFFVAMPFVIGLMNLVVPLQIGARDVAFPFLNNLSFWFTVVGVILVNVSLGVGEFAQTGWLAYPPLSGIEYSPGVGVDYWIWSLQLSGIGTTLTGINFFVTILKMRAPGMTMFKMPVFTWASLCANVLIIASFPILTVTVALLTLDRYLGTHFFTNDMGGNMMMYINLIWAWGHPEVYILILPVFGVFSEIAATFSRKRLFGYTSLVWATVCITVLSFIVWLHHFFTMGAGANVNAFFGITTMIIAIPTGVKIFNWLFTMYQGRIVFHSAMLWTIGFIVTFSVGGMTGVLLAVPGADFVLHNSLFLIAHFHNVIIGGVVFGCFAGMTYWWPKAFGFKLNETWGKRAFWFWIIGFFVAFMPLYALGFMGMTRRLSQQIDPQFHTMLMIAASGAVLIALGILCLVIQMYVSIRDRDQNRDLTGDPWGGRTLEWATSSPPPFYNFAVVPHVHERDAFWEMKEKGEAYKKPDHYEEIHMPKNSGAGIVIAAFSTIFGFAMIWHIWWLAIVGFAGMIITWIVKSFDEDVDYYVPVAEIEKLENQHFDEITKAGLKNGN
stoichiometry N (native MS): 2

B3: MdtB (natural protein)
chain: MQVLPPSSTGGPSRLFIMRPVATTLLMVAILLAGIIGYRALPVSALPEVDYPTIQVVTLYPGASPDVMTSAVTAPLERQFGQMSGLKQMSSQSSGGASVITLQFQLTLPLDVAEQEVQAAINAATNLLPSDLPNPPVYSKVNPADPPIMTLAVTSTAMPMTQVEDMVETRVAQKISQISGVGLVTLSGGQRPAVRVKLNAQAIAALGLTSETVRTAITGANVNSAKGSLDGPSRAVTLSANDQMQSAEEYRQLIIAYQNGAPIRLGDVATVEQGAENSWLGAWANKEQAIVMNVQRQPGANIISTADSIRQMLPQLTESLPKSVKVTVLSDRTTNIRASVDDTQFELMMAIALVVMIIYLFLRNIPATIIPGVAVPLSLIGTFAVMVFLDFSINNLTLMALTIATGFVVDDAIVVIENISRYIEKGEKPLAAALKGAGEIGFTIISLTFSLIAVLIPLLFMGDIVGRLFREFAITLAVAILISAVVSLTLTPMMCARMLSQESLRKQNRFSRASEKMFDRIIAAYGRGLAKVLNHPWLTLSVALSTLLLSVLLWVFIPKGFFPVQDNGIIQGTLQAPQSSSFANMAQRQRQVADVILQDPAVQSLTSFVGVDGTNPSLNSARLQINLKPLDERDDRVQKVIARLQTAVDKVPGVDLFLQPTQDLTIDTQVSRTQYQFTLQATSLDALSTWVPQLMEKLQQLPQLSDVSSDWQDKGLVAYVNVDRDSASRLGISMADVDNALYNAFGQRLISTIYTQANQYRVVLEHNTENTPGLAALDTIRLTSSDGGVVPLSSIAKIEQRFAPLSINHLDQFPVTTISFNVPDNYSLGDAVQAIMDTEKTLNLPVDITTQFQGSTLAFQSALGSTVWLIVAAVVAMYIVLGILYESFIHPITILSTLPTAGVGALLALLIAGSELDVIAIIGIILLIGIVKKNAIMMIDFALAAEREQGMSPREAIYQACLLRFRPILMTTLAALLGALPLMLSTGVGAELRRPLGIGMVGGLIVSQVLTLFTTPVIYLLFDRLALWTKSRFARHEEEA
stoichiometry N (native MS): 2

B4: ExbB (natural protein)
chain: MGNNLMQTDLSVWGMYQHADIVVKCVMIGLILASVVTWAIFFSKSVEFFNQKRRLKREQQLLAEARSLNQANDIAADFGSKSLSLHLLNEAQNELELSEGSDDNEGIKERTSFRLERRVAAVGRQMGRGNGYLATIGAISPFVGLFGTVWGIMNSFIGIAQTQTTNLAVVAPGIAEALLATAIGLVAAIPAVVIYNVFARQIGGFKAMLGDVAAQVLLLQSRDLDLEASAAAHPVRVAQKLRAG
stoichiometry N (native MS): 5
